Blank lines part the entries; values can stand above or below the molecule they belong to.
What was measured:
[1] = molecular target: recombinant Factor VIII (UniProt P00451); experiment: SPR (Biacore 2000), rFVIII coupled to CM5 chip, fragment injected
[2] = molecular target: recombinant Factor VIII (UniProt P00451); experiment: SPR (Biacore 2000), rFVIII coupled to CM5 chip, VWF injected
[3] = molecular target: recombinant fragment III monomer with C-terminal Strep-Tag (human) (UniProt P04275); experiment: SPR (Biacore 2000), fragment III monomer immobilized on CM5, FVIII concentration series injected
[4] = molecular target: recombinant fragment III dimer with C-terminal Strep-Tag (human) (UniProt P04275); experiment: SPR (Biacore 2000), fragment III dimer immobilized on CM5, FVIII concentration series injected
[5] = molecular target: plasma derived full length Von Willebrand Factor (human) (UniProt P04275); experiment: SPR (Biacore 2000), plasma derived flVWF immobilized on a CM5 chip, FVIII concentration series injected; mean of n=4 per the legend
[6] = molecular target: T1, plasma derived full length Von Willebrand Factor (human, UniProt P04275 764-2813); experiment: SPR (Biacore 2000), collagen type III coupled to CM5 chip, VWF injected
T1 construct: Plasma VWF is multimeric; also called pdVWF; flVWF
Experimental: (§1) The analysis was carried out using Biacore 2000 instrument (GE Healthcare) according to Romjin et al. 2003 with modifications. Briefly human pepsin-digested collagen type III was covalently bound to the surface of a CM5 sensor chip. Subsequently the samples were injected over the sensor chip surface. The running buffer was 10 mM HEPES, 150 mM NaCl, 3.4 mM EDTA, 0.005% Tween 20.

[7] = molecular target: T2, fragment III (SPIII, res. 764-2128) from plasma derived Von Willebrand Factor (human, UniProt P04275 764-2128); experiment: SPR (Biacore 2000), collagen type III coupled to CM5 chip, fragment injected
T2 construct: Made by S. aureus V-8 protease digestion of pdVWF; also called VWF fragment III
Experimental: as §1

Molecule: plasma derived full length Von Willebrand Factor (from UniProt P04275 764-2813)
Kd [2]: 0.67 nM

B1: human pepsin-digested collagen type III (other, UniProt P02461 168-1196, looked up)
chain: GLAGYPGPAGPPGPPGPPGTSGHPGSPGSPGYQGPPGEPGQAGPSGPPGPPGAIGPSGPAGKDGESGRPGRPGERGLPGPPGIKGPAGIPGFPGMKGHRGFDGRNGEKGETGAPGLKGENGLPGENGAPGPMGPRGAPGERGRPGLPGAAGARGNDGARGSDGQPGPPGPPGTAGFPGSPGAKGEVGPAGSPGSNGAPGQRGEPGPQGHAGAQGPPGPPGINGSPGGKGEMGPAGIPGAPGLMGARGPPGPAGANGAPGLRGGAGEPGKNGAKGEPGPRGERGEAGIPGVPGAKGEDGKDGSPGEPGANGLPGAAGERGAPGFRGPAGPNGIPGEKGPAGERGAPGPAGPRGAAGEPGRDGVPGGPGMRGMPGSPGGPGSDGKPGPPGSQGESGRPGPPGPSGPRGQPGVMGFPGPKGNDGAPGKNGERGGPGGPGPQGPPGKNGETGPQGPPGPTGPGGDKGDTGPPGPQGLQGLPGTGGPPGENGKPGEPGPKGDAGAPGAPGGKGDAGAPGERGPPGLAGAPGLRGGAGPPGPEGGKGAAGPPGPPGAAGTPGLQGMPGERGGLGSPGPKGDKGEPGGPGADGVPGKDGPRGPTGPIGPPGPAGQPGDKGEGGAPGLPGIAGPRGSPGERGETGPPGPAGFPGAPGQNGEPGGKGERGAPGEKGEGGPPGVAGPPGGSGPAGPPGPQGVKGERGSPGGPGAAGFPGARGLPGPPGSNGNPGPPGPSGSPGKDGPPGPAGNTGAPGSPGVSGPKGDAGQPGEKGSPGAQGPPGAPGPLGIAGITGARGLAGPPGMPGPRGSPGPQGVKGESGKPGANGLSGERGPPGPQGLPGLAGTAGEPGRDGNPGSDGLPGRDGSPGGKGDRGENGSPGAPGAPGHPGPPGPVGPAGKSGDRGESGPAGPAGAPGPAGSRGAPGPQGPRGDKGETGERGAAGIKGHRGFPGNPGAPGSPGPAGQQGAIGSPGPAGPRGPVGPSGPPGKDGTSGHPGPIGPPGPRGNRGERGSEGSPGHPGQPGPPGPPGAPGPC
notes: also called collagen III
Kd [6]: 0.75 nM | Kd [7]: 17 nM

Results, then the molecule that gave them:

Kd [1]: 155 nM
Molecule: fragment II (res. 764-1673) of Von Willebrand Factor (from UniProt P04275 764-1673)

Kd [1]: 6.18 nM
Molecule: fragment III (SPIII, res. 764-2128) from plasma derived Von Willebrand Factor (from UniProt P04275 764-2128)

Kd [3]: 14.3 nM | Kd [4]: 1.9 nM | Kd [5]: 0.25 nM
Molecule: recombinant Factor VIII (from UniProt P00451 20-2351)
